From ChEMBL document CHEMBL1147688, “Development of a dual fluorogenic and chromogenic dipeptidyl peptidase IV substrate” (Bioorg Med Chem Lett, 2006)

Substrate: NCC(=O)N1CCC[C@H]1C(=O)NCC(=O)N1CCC[C@H]1C(=O)Nc1cc2oc3cc(=[N+](CCCS(=O)(=O)O)CCCS(=O)(=O)O)ccc-3nc2c2ccccc12
Assay: Affinity for DPP4
Details: Homo sapiens

B1: Dipeptidyl peptidase 4 (Homo sapiens), P27487 (protein)
chain: MKTPWKVLLGLLGAAALVTIITVPVVLLNKGTDDATADSRKTYTLTDYLKNTYRLKLYSLRWISDHEYLYKQENNILVFNAEYGNSSVFLENSTFDEFGHSINDYSISPDGQFILLEYNYVKQWRHSYTASYDIYDLNKRQLITEERIPNNTQWVTWSPVGHKLAYVWNNDIYVKIEPNLPSYRITWTGKEDIIYNGITDWVYEEEVFSAYSALWWSPNGTFLAYAQFNDTEVPLIEYSFYSDESLQYPKTVRVPYPKAGAVNPTVKFFVVNTDSLSSVTNATSIQITAPASMLIGDHYLCDVTWATQERISLQWLRRIQNYSVMDICDYDESSGRWNCLVARQHIEMSTTGWVGRFRPSEPHFTLDGNSFYKIISNEEGYRHICYFQIDKKDCTFITKGTWEVIGIEALTSDYLYYISNEYKGMPGGRNLYKIQLSDYTKVTCLSCELNPERCQYYSVSFSKEAKYYQLRCSGPGLPLYTLHSSVNDKGLRVLEDNSALDKMLQNVQMPSKKLDFIILNETKFWYQMILPPHFDKSKKYPLLLDVYAGPCSQKADTVFRLNWATYLASTENIIVASFDGRGSGYQGDKIMHAINRRLGTFEVEDQIEAARQFSKMGFVDNKRIAIWGWSYGGYVTSMVLGSGSGVFKCGIAVAPVSRWEYYDSVYTERYMGLPTPEDNLDHYRNSTVMSRAENFKQVEYLLIHGTADDNVHFQQSAQISKALVDVGVDFQAMWYTDEDHGIASSTAHQHIYTHMSHFIKQCFSLP
Work on B1 yielded a Km of 56 µM.
